In patent US8247194 (Amgen, dated 2012):

Key:
[1] = target: T1, recombinant human GM-CSF (rhGM-CSF), produced in E. coli (human, UniProt P04141 18-144); assay: cell-based or functional assay
[2] = target: T1, recombinant human GM-CSF (rhGM-CSF), …; assay: cell-based or functional assay; remark: listed apart in the source
[3] = target: T1, recombinant human GM-CSF (rhGM-CSF), …; assay: SPR, purified SCA over rhGM-CSF coated chip, 1:1 Langmuir fit
Procedure: FIG. 36A, B: Kinetic binding analysis of SCA leads derived from the method of the invention, as determined by SPR. Binding kinetics (kd and ka) of the SCA leads were measured injecting 10 μL of purified protein in dilution series ranging from 10 μg/mL to 1 pg/mL purified SCA onto a rhGM-CSF coated sensor chip surface. The dissociation was monitored at 25° C. for 100 sec. Data were fitted using BIAevalution™ software determining the rate constant for dissociation (FIG. 36B) and association (FIG. 36A) kinetics. The residuals corresponding to the fitted data monitoring the deviation from the raw data indicated no systematic deviation for the fit.

[4] = target: T1, recombinant human GM-CSF (rhGM-CSF), …; assay: SPR, rhGM-CSF coated chip, 1:1 Langmuir fit, analyte 116 nM
[5] = target: T1, recombinant human GM-CSF (rhGM-CSF), …; assay: SPR, rhGM-CSF coated chip, 1:1 Langmuir fit, analyte 347 nM
[6] = target: T1, recombinant human GM-CSF (rhGM-CSF), …; assay: SPR, rhGM-CSF coated chip, 1:1 Langmuir fit, analyte 1040 nM
[7] = target: T1, recombinant human GM-CSF (rhGM-CSF), …; assay: SPR, rhGM-CSF coated chip, 1:1 Langmuir fit, analyte 12.8 nM
[8] = target: T1, recombinant human GM-CSF (rhGM-CSF), …; assay: SPR, rhGM-CSF coated chip, 1:1 Langmuir fit, analyte 3120 nM
[9] = target: T1, recombinant human GM-CSF (rhGM-CSF), …; assay: SPR, rhGM-CSF coated chip, 1:1 Langmuir fit, analyte 38.5 nM
[10] = target: T1, recombinant human GM-CSF (rhGM-CSF), …; assay: SPR, rhGM-CSF coated chip, 1:1 Langmuir fit, analyte 3120 nM; analyte concentration 3120 nM

T1 sequence (P04141 18-144 limits assumed): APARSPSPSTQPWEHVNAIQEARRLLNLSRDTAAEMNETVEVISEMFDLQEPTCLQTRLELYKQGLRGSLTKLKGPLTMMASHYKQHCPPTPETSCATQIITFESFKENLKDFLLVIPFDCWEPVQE

B1: half-human SCA C33oN-33 (scFv)
scFv: ELQLVEQSGAALVKPGDSVKMSCKASGYPFTDYIVHWVKQSHGKSLDWIGYINPYSGDTKFNEKFKSKATLTVDKSSSTAYMEFSRLTSEDSAIYYCARSGLIAVYFDYWGQGTTVTVSSGGGGSGGGGSGGGGSELVLTQSPDFQSVTPKEKVTITCRASQSIGSSLHWYQQKPDQSPKLLIKFASQSLSGVPSRFSGSGSGTDFTLTINSLEAEDAATYYCQQSYSTPSTFGPGTKVEIKTGDYKDDDDKHHHHHH
IC50 (read off the curve), TF-1 proliferation, C33ON-33 dimer [1]: ~0.2 µg/mL | IC50 (read off the curve), TF-1 proliferation, C33ON-33 mono [1]: ~0.2 µg/mL

B2: half-human SCA B32oN-45 (scFv)
scFv: ELQLVEQSGAALVKPGDSVKMSCKASGYPFTDYIVHWVKQSHGKSLDWIGYINPYSGDTKFNEKFKSKATLTVDKSSSTAYMEFSRLTSEDSAIYYCARSGLIAVYFDYWGQGTTVTVSSGGGGSGGGGSGGGGSELVMTQSPSSVSASVGDRVTIACRASQNIRNILNWYQQRPGKAPQLLIYAASNLQSGVPSRFSGSGSGTDFTLTINSLQPEDFATYYCQQSYSMPRTFGGGTKVEIKTGDYKDDDDKHHHHHH
notes: Expressed from pComb3H5BFlag/His, which adds the Flag-tag between the SCA and the His6-tag; As a lead it was purified by IMAC and gel filtration; also called maternal SCA B32oN-45
half maximal inhibition constant (IC50), rhGM-CSF dependent proliferation of TF-1 cells [2]: 6 nM | Kd [3]: 50 nM | Ka [4]: 1.66e+08 M⁻¹ | Kd [4]: 6.01 nM | koff [4]: 0.00464 s⁻¹ | kon [4]: 772000 M⁻¹ s⁻¹ | Ka [5]: 9.22e+07 M⁻¹ | Kd [5]: 10.8 nM | koff [5]: 0.00477 s⁻¹ | kon [5]: 440000 M⁻¹ s⁻¹ | Ka [6]: 1.89e+07 M⁻¹ | Kd [6]: 52.8 nM | koff [6]: 0.0046 s⁻¹ | kon [6]: 87100 M⁻¹ s⁻¹ | Ka [7]: 3.25e+08 M⁻¹ | Kd [7]: 3.07 nM | koff [7]: 0.00384 s⁻¹ | kon [7]: 1.25e+06 M⁻¹ s⁻¹ | Ka [8]: 1.06e+07 M⁻¹ | koff [8]: 0.00514 s⁻¹ | kon [8]: 54300 M⁻¹ s⁻¹ | Ka [9]: 2.2e+08 M⁻¹ | Kd [9]: 4.55 nM | koff [9]: 0.00444 s⁻¹ | kon [9]: 975000 M⁻¹ s⁻¹ | Kd [10]: 94.6 nM
